Data reported in US20250215097A1 (BEIJING TIANNUOJIANCHENG PHARMA TECH, published 2025).

How the values were obtained:
human CCR8 [1] = molecular target: T1, human CCR8 (human, UniProt P51685 1-355); assay: cell-based or functional assay
cynomolgus monkey CCR8 [2] = molecular target: T2, cynomolgus monkey CCR8 (cynomolgus monkey, UniProt O97665 1-356 (rhesus entry)); assay: flow cytometry, chimeric IgG on CHO-cynoCCR8 cells
T2 construct: Full-length, stably expressed on CHO cells; also called cynoCCR8; CHO-cynoCCR8
T2 sequence (O97665 other isoform, or with tags, fused parts or gaps): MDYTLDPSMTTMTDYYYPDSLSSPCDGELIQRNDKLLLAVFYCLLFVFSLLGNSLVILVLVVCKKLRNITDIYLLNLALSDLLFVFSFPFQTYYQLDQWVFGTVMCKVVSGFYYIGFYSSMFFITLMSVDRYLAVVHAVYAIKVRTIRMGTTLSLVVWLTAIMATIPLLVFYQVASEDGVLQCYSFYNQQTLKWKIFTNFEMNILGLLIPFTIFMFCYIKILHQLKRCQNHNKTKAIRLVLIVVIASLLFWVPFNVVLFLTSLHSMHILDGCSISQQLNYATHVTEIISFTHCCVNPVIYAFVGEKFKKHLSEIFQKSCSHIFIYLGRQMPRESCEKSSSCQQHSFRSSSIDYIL
Description: (§1) 5×10⁴ CHO-hCCR8 or CHO-cynoCCR8 cells were added per well in a 96-well U-shaped plate and centrifuged to discard the supernatant, 100 μL of a gradiently diluted anti-CCR8 chimeric antibody or anti-KLH isotype control antibody was added per well and the mixture was incubated on ice for 60 minutes. After the unbound primary antibody was washed away, 50 μL of a secondary antibody AlexaFluro647 anti-human IgG (Jackson Immuno Research #109-606-170) was added per well and the mixture was incubated on ice for 30 minutes. After the washing, 50 μL of 5 μg/mL of a PI/BSA solution was added to each well and the mixture was incubated on ice for 5 minutes. Then excess secondary antibody was washed away with 0.5% BSA, the cells were resuspended by adding a PBS solution, and binding of the antibody to the cells was detected using a flow cytometer (Intellicyte iQue). The fluorescence value of a Pi-negative cell population was analyzed. Cell-binding curves were fitted by Graphpad Prism 7 (FIG. 2). The chimeric antibodies of 87D8, 102H5, 109F6, 110G2, 113B3, 139A9, 144D2, etc. all bound with high affinities to human CCR8+ cells CHO-hCCR8 and cynomolgus monkey CCR8+ cells CHO-cynoCCR8.

human CCR8 [3] = molecular target: T1, human CCR8; assay: flow cytometry, chimeric IgG on CHO-hCCR8 cells
Description: as §1

cynomolgus monkey CCR8 [4] = molecular target: T2, cynomolgus monkey CCR8; assay: flow cytometry of purified Fab on cells stably expressing cynomolgus monkey CCR8
Description: (§2) The positive clones obtained in example 1 were re-induced to express and purified to obtain a Fab antibody. The binding to cells stably expressing human CCR8, cynomolgus monkey CCR8 and human CCR4 was tested respectively, 5×10⁴ test cells were added to each well of a 96-well U-shaped plate and centrifuged to discard the supernatant, 100 μL/well of the purified Fab antibody was added and the mixture was incubated on ice for 60 minutes. After washing away the unbound primary antibody, 50 μL of a secondary antibody solution (Anti-human IgG, F(ab′)2-AF647, Jackson Immuno Research) was added to each well and the mixture was incubated on ice for 30 minutes. After washing, 50 μL of a PI/BSA solution at 5 μg/mL was added to each well and the mixture was incubated on ice for 5 minutes. Then excess secondary antibody was washed away with 0.5% BSA, the cells were resuspended by adding a PBS solution, and binding of the antibody to the cells was detected using a flow cytometer (Intellicyte iQue).

human CCR4 = molecular target: T3, human CCR4 (human, UniProt P51679 1-360); assay: flow cytometry of purified Fab on cells stably expressing human CCR4
T3 construct: also called hCCR4; human CCR4+ cells
T3 sequence: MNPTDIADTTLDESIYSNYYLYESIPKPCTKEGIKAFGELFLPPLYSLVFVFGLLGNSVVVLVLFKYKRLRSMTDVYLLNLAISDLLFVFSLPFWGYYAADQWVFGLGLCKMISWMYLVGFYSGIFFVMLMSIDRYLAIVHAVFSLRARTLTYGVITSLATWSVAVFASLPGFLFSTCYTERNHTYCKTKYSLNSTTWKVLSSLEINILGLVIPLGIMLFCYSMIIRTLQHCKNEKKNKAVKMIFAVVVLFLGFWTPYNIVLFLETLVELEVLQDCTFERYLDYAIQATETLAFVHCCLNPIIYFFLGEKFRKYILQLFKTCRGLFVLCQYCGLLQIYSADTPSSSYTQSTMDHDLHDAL
Description: as §2

human CCR8 [5] = molecular target: T1, human CCR8; assay: flow cytometry on CHO-hCCR8 cells, parental chimeric antibody
Description: (§3) 5×10⁴ CHO-hCCR8 or CHO-cynoCCR8 cells were added per well in a 96-well U-shaped plate and centrifuged to discard the supernatant. 100 μL of a gradiently diluted anti-CCR8 chimeric antibody was added per well and the mixture was incubated on ice for 60 minutes. After the unbound primary antibody was washed away, 50 μL, of a secondary antibody AlexaFluro647 anti-human IgG (Jackson Immuno Research #109-606-170) was added per well and the mixture was incubated on ice for 30 minutes. After the washing, 50 μL of 5 μg/mL of a Pi/BSA solution was added to each well and the mixture was incubated on ice for 5 minutes. Then excess secondary antibody was washed away with 0.5% BSA, the cells were resuspended by adding a PBS solution, and binding of the antibody to the cells was detected using a flow cytometer (BD Celesta). The fluorescence value of a PI-negative cell population was analyzed. Cell-binding curves were fitted by Graphpad Prism 7.

cynomolgus monkey CCR8 [6] = molecular target: T2, cynomolgus monkey CCR8; assay: flow cytometry on CHO-cynoCCR8 cells, parental chimeric antibody
Description: as §3

human CCR8 [7] = molecular target: T1, human CCR8; assay: cell-based or functional assay; remark: listed apart in the source
human CCR8 [8] = molecular target: T1, human CCR8; assay: cell-based or functional assay; remark: listed apart in the source
cynomolgus monkey CCR8 [9] = molecular target: T2, cynomolgus monkey CCR8; assay: flow cytometry on CHO-cynoCCR8 cells
Description: as §3

human CCR8 [10] = molecular target: T1, human CCR8; assay: flow cytometry on CHO-hCCR8 cells
Description: as §3

T1 sequence (P51685 whole entry): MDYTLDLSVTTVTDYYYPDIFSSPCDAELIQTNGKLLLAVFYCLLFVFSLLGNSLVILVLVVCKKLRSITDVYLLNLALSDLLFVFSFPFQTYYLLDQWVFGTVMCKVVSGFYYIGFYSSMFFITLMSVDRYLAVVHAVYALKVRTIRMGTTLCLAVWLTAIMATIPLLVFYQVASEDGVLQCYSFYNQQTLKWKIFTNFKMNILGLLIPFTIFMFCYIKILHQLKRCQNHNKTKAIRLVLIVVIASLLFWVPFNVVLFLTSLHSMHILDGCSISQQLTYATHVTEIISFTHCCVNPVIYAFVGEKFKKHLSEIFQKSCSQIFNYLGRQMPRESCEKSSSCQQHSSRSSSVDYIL

B1: 110G2 anti-CCR8 chimeric antibody (antibody, V domains shown)
VH: QVQLVESNGRLVQPKGSLKLSCAASGFTFNAYAMNWVRQAPGKGLEWVARIRSKSNNYATYYADSVKDRFTISRDDSQSMLYLQMNNLKTEDTAMYFCVRQKFGARGYYALDFWGQGASVTVSS
VL: EILLTQSPAIMSASPGEKVTMTCRASSSVSSSYLHWYQQKSGASPKLWIYSTSNLASGVPARFSGSGSGTSYSLTISSVEAEDAATYYCQQYSGYPYTFGGGTKLEIK
- ADCC EC50 (nM), NK92-CD16A effectors, HEK293-hCCR8 targets, LDH release (human CCR8 [1]): 0.04 nM
- EC50 (cynomolgus monkey CCR8 [2]): 1.26 nM
- EC50 (human CCR8 [3]): 0.45 nM

B2: 113B3 anti-CCR8 chimeric antibody (antibody, V domains shown)
VH: EVQLVESNGGLVQPKGSLKLSCAASGFTFNAYAMNWVRQAPGKGLEWVARIRSKSNNYATYYADSVKDRFTISRDDSQSMLYLQMNNLKTEDTAMYFCVRQKFGSRGYYALDFWGQGATVTVSS
VL: QIVLTQSPAIMSASLGERVTMTCTASSSVSSSYLHWYQQKPGSSPKLWIYSTSNLASGVPARFSGSGSGTSYSLTISSMEAEDAATYYCHQYHRSPRTFGGGTRLEIK
- ADCC EC50 (nM), NK92-CD16A effectors, HEK293-hCCR8 targets, LDH release (human CCR8 [1]): 0.04 nM
- EC50 (cynomolgus monkey CCR8 [2]): 1.99 nM
- EC50 (human CCR8 [3]): 0.4 nM

B3: 139A9 anti-CCR8 chimeric antibody (antibody, V domains shown)
VH: QVQLVESNGRLVQPKGSLKLSCAASGFTFNAYAMNWVRQAPGKGLEWVARIRSKSNNYATYYADSVKDRFTISRDDSQSMLYLQMNNLKTEDTAMYFCVRQKFGARGYYALDFWGQGASVTVSS
VL: ENVLTQSPTTMAASPGEKITITCSASSSISSNYLHWYQQKPGFSPKLLIYRTSNLASGVPARFSGSGSGTSYSLTIGTMEAEDVATYYCQQGSSIPLTFGAGTKLELK
- ADCC EC50 (nM), NK92-CD16A effectors, HEK293-hCCR8 targets, LDH release (human CCR8 [1]): 0.06 nM
- EC50 (cynomolgus monkey CCR8 [2]): 1.99 nM
- EC50 (human CCR8 [3]): 0.49 nM

B4: 116F10 anti-CCR8 chimeric antibody (antibody, V domains shown)
VH: EVQLVESYGGLVQPKGSLKLSCAASGFTFNAYAMNWVRQAPGKGLEWVARIRSKSNNYATYYADSVKDRFTISRDDSQNILYLQMNNLKIEDTAMYFCVRQKFGSRGYYALDFWGQGASVTVSS
VL: EIVLTQSPAIMSVSPGEKVTMTCRASSSVSSSYLHWYQQKSGASPKLWIYSTSTLASGVPARFSGSGSGTSYSLTISSVEAEDAATYYCQHYTVYPLGTFGGGTKLEIK
- ADCC EC50 (nM), NK92-CD16A effectors, HEK293-hCCR8 targets, LDH release (human CCR8 [1]): 0.1 nM
- EC50 (cynomolgus monkey CCR8 [2]): 1.25 nM
- EC50 (human CCR8 [3]): 0.58 nM

B5: 29A8 Fab antibody (Fab, V domains shown)
VH: EVQLVESGGGLVQPKGSLKLSCAASGFTFNAFAMNWVRQAPGKGLEWVARIRSKSNNYATYYADSVIDRFTISRDDSQSMLYLQMNNLKTEDTAMYYCVRGKEAGAYYAMDYWGQGTSVTVSS
VL: DIVMTQAAPSVPVTPGESVSISCRSSKSLLHSNGNTYLYWFLQRPGQSPQLLIYRMSNLASGVPDRFSGSGSGTAFTLRISKVEAEDVGVYYCMQHLEYPFTFGGGTKLEIK
notes: detected with anti-human IgG F(ab')2; also called clone 29A8
- binding result (cynomolgus monkey CCR8 [4]): binds
- binding result (human CCR4): no binding

B6: 144D2 anti-CCR8 chimeric antibody (antibody, V domains shown)
VH: EVQLVESGGGLVQPKGSLKLSCAASGFTFNAFAMNWVRQAPGKGLEWVARIRSKSNNYATYYADSVIDRFTISRDDSQSMLYLQMNNLKTEDTAMYYCVRGKEAGAYYAMDYWGQGTSVTVSS
VL: DIVMTQAAPSVPVTPGESVSISCRSSKSLLHSNGNTYLYWFLQRPGQSPQLLIYRMSNLASGVPDRFSGSGSGTAFTLRISRVEAEDVGVYYCMQHLEYPLTFGAGTKLEIK
- ADCC EC50 (nM), NK92-CD16A effectors, HEK293-hCCR8 targets, LDH release (human CCR8 [1]): 0.07 nM
- EC50 (human CCR8 [5]): 0.88 nM
- EC50 (cynomolgus monkey CCR8 [6]): 1.32 nM
- EC50 (cynomolgus monkey CCR8 [2]): 2.75 nM
- EC50 (human CCR8 [3]): 1.08 nM

B7: 87D8 anti-CCR8 chimeric antibody (antibody, V domains shown)
VH: EVQLVESGGGLVQPKGSLRLSCAASGFTFNTYAMNWVRQAPGKGLEWIARIRSKSNNYATYYADSVKDRFTISRDDSQSMLYLQMNNLKTEDTAMYYCVRGKEAGAYYAMDYWGQGTSVTVSS
VL: DIVMTQAAPSVPVTPGESVSISCRSSKSLLHSNGNTYLYWFLQRPGQSPQLLIYRMSNLASGVPDRFSGSGSGTAFTLRISRVEAEDVGVYYCMQHLEYPLTFGAGTKLELK
- ADCC EC50 (nM), PBMC FcγRIIIA158F/F effectors, HEK293-hCCR8 targets (human CCR8 [7]): 0.08 nM
- ADCC EC50 (nM), PBMC FcγRIIIA158V/V effectors, HEK293-hCCR8 targets (human CCR8 [7]): 0.05 nM
- ADCC maximal lysis rate, PBMC FcγRIIIA158F/F effectors, HEK293-hCCR8 targets (human CCR8 [7]): 68%
- ADCC maximal lysis rate, PBMC FcγRIIIA158V/V effectors, HEK293-hCCR8 targets (human CCR8 [7]): 76%
- ADCC EC50 (nM), NK92-CD16A effectors, HEK293-hCCR8 targets, LDH release (human CCR8 [1]): 0.1 nM
- EC50 (human CCR8 [5]): 0.57 nM
- EC50 (cynomolgus monkey CCR8 [6]): 1.78 nM
- EC50 (cynomolgus monkey CCR8 [2]): 1.92 nM
- ADCC maximal lysis rate, NK92-CD16A effectors, HEK293-hCCR8 targets (human CCR8 [8]): 33%
- EC50 (human CCR8 [3]): 0.71 nM

B8: 30A7 Fab antibody (Fab, V domains shown)
VH: QVQLVESGGGLVQPKGSLKLSCAASGFTFNTYAMNWVRQAPGKGLEWVARIRSKSNYYATYYADSVKDRFTISRDDSQSMLYLQMNNLKTEDTAMYYCLRGKEAGAYYAMDYWGQGTSVTVSS
VL: DIVMTQAAPSVPVTPGESVSISCRSSKSLLHSNGNTYLYWFLQRPGQSPQLLIYRMSNLASGVPDRFSGSGSGTAFTLRISRVEAEDVGVYYCMQHLEYPFTFGAGTKLEIK
notes: also called clone 30A7
- binding result (cynomolgus monkey CCR8 [4]): binds
- binding result (human CCR4): no binding

B9: h87D8 H1K1 (antibody, human IgG1, V domains shown)
VH: EVQLVESGGGLVQPGGSLRLSCAASGFTFNTYAMNWVRQAPGKGLEWVARIRSKSNNYATYYADSVKGRFTISRDDSQSSLYLQMNSLRAEDTAVYYCVRGKEAGAYYAMDYWGQGTLVTVSS
VL: DIVMTQSPLSLPVTPGEPASISCRSSKSLLHSNGNTYLYWFLQKPGQSPQLLIYRMSNLASGVPDRFSGSGSGTDFTLKISRVEAEDVGVYYCMQHLEYPLTFGQGTKLEIK
notes: Humanized; also called h87D8 VHv1+h87D8 VKv1
- EC50 (cynomolgus monkey CCR8 [9]): 1.19 nM
- EC50 (human CCR8 [10]): 0.53 nM
- ADCC half-maximal effective concentration (EC50), NK92-CD16A effectors, HEK293-hCCR8 targets (human CCR8 [8]): 0.01 nM

B10: h144D2 H1K1 (antibody, human IgG1, V domains shown)
VH: EVQLVESGGGLVQPGGSLRLSCAASGFTFNAFAMNWVRQAPGKGLEWVARIRSKSNNYATYYADSVKGRFTISRDDSQSSLYLQMNSLRAEDTAVYYCVRGKEAGAYYAMDYWGQGTLVTVSS
VL: DIVMTQSPLSLPVTPGEPASISCRSSKSLLHSNGNTYLYWFLQKPGQSPQLLIYRMSNLASGVPDRFSGSGSGTDFTLKISRVEAEDVGVYYCMQHLEYPLTFGQGTKLEIK
notes: Humanized; also called h144D2 VHv1+h87D8 VKv1
- EC50 (cynomolgus monkey CCR8 [9]): 1.16 nM
- EC50 (human CCR8 [10]): 0.89 nM
- ADCC half-maximal effective concentration (EC50), NK92-CD16A effectors, HEK293-hCCR8 targets (human CCR8 [8]): 0.02 nM
